Among the data in US20110200629A1 are % MFI increase values, retold here.

The experiment concerns the target T1, HLA-A0201 (human), P04439.
T1 chain: not shown

As for RGYVYQGL (modifications not checked) [murine H-2 Kb binding peptide VSV8 (RGYVYQGL, SEQ ID NO:6)], the % MFI increase came out at 5.6%.
